Blank lines part the entries; values can stand above or below the molecule they belong to.
Columns and labels:
[1] = target: Mitochondrial citrate synthase (CS) (UniProt P00889); experiment: Microscale thermophoresis (MST), Monolith NT.115, nano-red excitation, MST power 40%, excitation power 80%; details: 23 °C, 0.1 M potassium phosphate, no further salt stated, 0.1 M potassium phosphate at pH 6, 7 or 8 (the same buffer species at all pH values)
[2] = target: T1, citrate synthase, mitochondrial (Sus scrofa, UniProt P00889); experiment: MST (pH 6)
T1 chain: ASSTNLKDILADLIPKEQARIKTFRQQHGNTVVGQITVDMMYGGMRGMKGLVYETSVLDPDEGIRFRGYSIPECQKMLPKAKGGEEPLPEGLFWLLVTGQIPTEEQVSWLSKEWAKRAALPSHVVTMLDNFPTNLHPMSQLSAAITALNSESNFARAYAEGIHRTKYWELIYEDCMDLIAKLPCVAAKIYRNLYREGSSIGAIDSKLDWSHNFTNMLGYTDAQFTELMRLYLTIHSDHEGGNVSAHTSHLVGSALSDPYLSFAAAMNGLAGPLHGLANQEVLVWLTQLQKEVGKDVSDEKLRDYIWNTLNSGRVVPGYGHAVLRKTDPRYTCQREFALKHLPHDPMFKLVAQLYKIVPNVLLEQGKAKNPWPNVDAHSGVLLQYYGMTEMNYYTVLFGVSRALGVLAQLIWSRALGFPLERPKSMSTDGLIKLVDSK

[3] = target: T1, citrate synthase, mitochondrial; experiment: MST (pH 7)
[4] = target: T1, citrate synthase, mitochondrial; experiment: MST

Kd [4]: 1100 nM
B2: malate dehydrogenase, mitochondrial (protein)
chain: AKVAVLGASGGIGQPLSLLLKNSPLVSRLTLYDIAHTPGVAADLSHIETRATVKGYLGPEQLPDCLKGCDVVVIPAGVPRKPGMTRDDLFNTNATIVATLTAACAQHCPDAMICIISNPVNSTIPITAEVFKKHGVYNPNKIFGVTTLDIVRANAFVAELKGLDPARVSVPVIGGHAGKTIIPLISQCTPKVDFPQDQLSTLTGRIQEAGTEVVKAKAGAGSATLSMAYAGARFVFSLVDAMNGKEGVVECSFVKSQETDCPYFSTPLLLGKKGIEKNLGIGKISPFEEKMIAEAIPELKASIKKGEEFVKNMK
modifications: 10 mM acetyl-CoA

Kd [4]: 890 nM
B3: malate dehydrogenase, mitochondrial (protein)
chain: B2 chain
modifications: 10 mM NAD+

Kd [4]: 1580 nM
B4: malate dehydrogenase, mitochondrial (protein)
chain: B2 chain
modifications: 10 mM fumarate

Further lines, the molecule ahead of its results:

Molecule: Mitochondrial malate dehydrogenase (MDH), fluorescently labelled
Kd ([1]; pH 6): 680 ± 50 nM
Kd ([1]; pH 7): 1600 ± 450 nM
Kd ([1]; pH 8): 2290 ± 460 nM

B1: malate dehydrogenase, mitochondrial (protein)
chain: B2 chain
Kd [2]: 680 nM
Kd [3]: 1600 nM
Kd [4]: 2290 nM
